Bridge positions count the residues as written; N and C are the ends. Square brackets hold non-standard residues; d marks the D form. Ends that are not written are not given here. S5 = C=CCCC[C@](C)(N)C(=O)O
B1: ^BT1^S (biotinylated analog of T1^S) (peptide)
peptide: VRKRT[S5]RRL[S5]QERELVE
modifications: staple 6-10; also: biotinylated, site not given here
notes: Stapled form of T1, biotinylated for the pull-down

Target: T1, native, full length, EGFR (wtEGFR) (UniProt P00533 25-1210, limits assumed)
T1 construct: whole, on cells; The pull-down used cell lysates, not intact cells; the residue numbers used (L858R, T790M) fit human EGFR; also called wild type EGFR; Epidermal Growth Factor Receptor
Test: streptavidin-bead pull-down from lysates of wtEGFR-transfected CHO-K1 cells, anti-EGFR immunoblot

Row | Binder | binding result
1 | VRKRTLRRLLQERELVE (also: biotinylated, site not given here) [^BJM-WT (biotinylated analog of JM-WT)] | no binding (tested: 25 µM)
2 | B1 | no binding (tested: 25 µM)

Source: US20150031612A1 (YALE UNIVERSITY, published 2015)
